From publication PMC8585947, “Structure of Escherichia coli cytochrome bd-II type oxidase with bound aurachin D” (Nature Communications, 2021)

Target: Escherichia coli cytochrome bd-II type oxidase (hetero-trimer of AppC, AppB and AppX) (E. coli) (UniProt P26459)
Experiment: cryo-EM structure; bd-II in amphipol A8-35, 5.6 mg/mL, incubated with aurachin D; 20 mM MOPS, 20 mM NaCl, pH 7.0; C2 symmetry imposed; 3.0 Å

Work on “Escherichia coli cytochrome bd-II type oxidase (hetero-trimer of AppC, AppB and AppX) (from UniProt P26459 1-514; P26458 1-378; P24244 1-30) (complex)” yielded a stoichiometry N of 2.
